Test results from the supplement of paper PMC10567573.

B1: PTPN9 (parent)
chain: IDFLRVVRNQQSLAVSNMGARSKG
B2: CAMK2D (parent)
chain: IVRLHDSISEEGFHYLVFDLVTGG

Variants of: B1
Test: protein stability index of a GFP-peptide fusion (GPS, HEK-293T) (PSI 1-6); higher = more stable
Details: c terminus: a fixed tail appended
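Further: lentivirally expressed fusions sorted by FACS into six bins by GFP to DsRed ratio, PSI derived from sequencing read proportions per bin multiplied by bin number.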

Protein stability index: each site, then its substitutions
V15: L 2.41 | M 2.61 | N 2.86 | P 2.36 | Q 2.79 | R 2.31 | S 2.49 | T 2.69 | W 2.25 | Y 2.15
S16: A 3.26 | C 1.99 | D 2.48 | E 2.64 | F 2.31 | G 2.35 | H 2.15 | I 1.74 | K 2.59 | L 1.89 | M 1.83 | N 2.52 | P 2.54 | Q 2.78 | R 2.78 | T 2.2 | V 1.9 | W 1.46 | Y 2.38
N17: A 2.7 | C 2.1 | D 2.63 | E 3.08 | F 2.12 | G 2.21 | H 2.9 | I 2.09 | K 2.24 | L 2.22 | M 1.65 | P 2.27 | Q 2.42 | R 2.45 | S 2.74 | T 2.71 | V 2 | W 2.14 | Y 1.93
M18: A 3.02 | C 2.51 | D 3.05 | E 3.28 | F 2 | G 2.85 | H 2.91 | I 2.13 | K 2.87 | L 2.67 | N 3.06 | P 2.57 | Q 2.73 | R 3.35 | S 3.13 | T 3.23 | V 2.32 | W 2.03 | Y 2.04
G19: A 2.47 | C 2.24 | D 2.35 | E 2.91 | F 2.94 | H 2.57 | I 2.19 | K 2.58 | L 2.12 | M 2.3 | N 2.72 | P 2.83 | Q 2.96 | R 1.97 | S 2.08 | T 2.27 | V 2.13 | W 2.66 | Y 2.16
A20: C 2.6 | D 2.57 | E 1.92 | F 2.1 | G 2.43 | H 2.38 | I 1.99 | K 2.69 | L 2.21 | M 2.32 | N 2.78 | P 2.57 | Q 2.25 | R 2.47 | S 2.75 | T 2.06 | V 2.42 | W 2.32 | Y 2.44
R21: A 2.6 | C 1.83 | D 2.54 | E 2.3 | F 2.45 | G 3.16 | H 2.67 | I 2.14 | K 2.4 | L 1.7 | M 1.77 | N 2.65 | P 2.15 | Q 2.18 | S 2.37 | T 1.66 | V 2 | W 2.18 | Y 2.08
S22: A 2.2 | C 2.51 | D 2.69 | E 3.13 | F 2.24 | G 2.27 | H 2.55 | I 2.05 | K 2.46 | L 2.07 | M 1.81 | N 2.57 | P 2.4 | Q 2.86 | R 2.64 | T 2.23 | V 2.03 | W 2.4 | Y 2.16
K23: A 2.01 | C 1.88 | D 2.36 | E 2.32 | F 1.51 | G 1.96 | H 1.75 | I 1.72 | L 1.72 | M 1.91 | N 2.02 | P 2.09 | Q 3.29 | R 2.4 | S 1.68 | T 1.32 | V 1.72 | W 1.59 | Y 1.92
G24: A 2.55 | C 1.84 | D 2.75 | E 2.95 | F 1.84 | H 2.27 | I 2.3 | K 3.05 | L 2.18 | M 2.18 | N 2.46 | P 2.2 | Q 2.72 | R 2.48 | S 2.28 | T 2.63 | V 2.45 | W 1.76 | Y 3.1

Variants of: B2
Test: as above
Details: c terminus: a fixed tail appended

Protein stability index of substitutions, site by site:
E10: S 2.15 | H 3.04 | N 4.11
V17: P 2.04 | Y 3.27 | F 2.39 | A 2.78 | T 1.75 | K 2.56 | D 1.46 | G 3.58 | N 1.85
G12: T 3.32 | W 3.89 | Y 3.96 | A 2.25 | P 2.31 | N 2.04 | E 2.48 | V 3.05
Y15: R 1.21 | N 2.46 | S 1.06 | A 2.98 | F 2.63
E11: D 3.32 | A 2.79 | T 2.08 | L 3.7 | I 1.56 | R 3.9
G24: D 2.26 | M 3.78 | L 2.13 | Y 3.88 | Q 2.89 | S 2.88 | R 2.09 | P 3.4 | W 2.09 | V 3.44 | K 2.87
V21: P 2.41 | H 2 | T 2.88 | L 2.71 | M 1.93 | K 1.57 | W 4.26 | F 3.33 | N 4.11
L20: H 1.35 | T 2.27 | R 2.04 | D 1.67 | C 3.9 | Y 2.67 | E 2.05 | V 3.87
F18: E 2.33 | S 2 | H 1.63 | G 2 | A 2.33 | Y 1.43 | N 2.84 | C 1.32 | V 4.52
V2: A 2.29 | I 3.28 | D 1.79 | Y 3.12 | T 2.52 | K 1.51
G23: A 3.32 | V 2.43 | P 3.1 | K 2.19 | L 2.92 | T 3.2 | C 4.08 | Y 4.01 | N 2.49
R3: H 3.12 | E 2.25 | Q 2 | S 1.57
S9: N 2.94 | P 5.65 | L 4.27 | F 1.94 | Y 3.58 | M 3.39
L16: A 3.09 | C 2.49 | I 2.66 | F 2.76 | D 1.63 | R 2.51 | T 1.21 | H 1.39 | S 1.55
I8: T 2.61 | S 3.33 | Q 1.69 | N 3.02 | P 3.04 | G 1.64 | R 1.65 | K 2.4
I1: E 2.24 | V 2.13 | T 2.07 | G 1.94 | H 3.43 | K 2.05
H5: C 3.23 | N 2.33 | R 2.39 | I 3.99 | D 2.94
L4: E 1.69 | R 1.62 | D 1.8 | K 3.71 | P 2.39 | A 2.4 | W 1.57 | N 1.87
T22: K 3.31 | S 2.67 | N 4.16
D6: A 3.03 | M 2.4 | C 2.66
F13: N 2.2 | D 1.91 | M 2.71 | S 3.27
H14: Y 2.71 | C 2.29 | A 2.32 | K 2.2 | P 2.79
S7: G 1.96 | T 3.19 | W 2.25 | Y 3.15
D19: G 2.15 | A 1.87 | S 4.24 | T 1.62 | V 2.75
